From US20110082078 come the findings set out here.

The data set deals with ZFP-TF 14172-p65 (rat GDNF activator) (synthetic). The data set can be described thus: cell_activity. The following applies: GDNF mRNA increase vs AAV-GFP in rat eye; also activates in rat striatal neurons (FIG. 5).

The sequence “GGGGGCGCGGAACCGGGA (double strand) [rat GDNF target site (SEQ ID NO:55)]” returned an activity of 5 fold.
